Experimental data as given in patent publication US20160222105A1 (MacroGenics, published 2016).

B1: gpA33 × CD3 bi-specific monovalent diabody (DART-2) (bispecific antibody)
chain 1: QAVVTQEPSLTVSPGGTVTLTCRSSTGAVTTSNYANWVQQKPGQAPRGLIGGTNKRAPWTPARFSGSLLGGKAALTITGAQAEDEADYYCALWYSNLWVFGGGTKLTVLGGGGSGGGGQVQLVQSGAEVKKPGASVKVSCKASGYTFTGSWMNWVRQAPGQGLEWIGRIYPGDGETNYNGKFKDRVTITADKSTSTAYMELSSLRSEDTAVYYCARIYGNNVYFDVWGQGTTVTVSSGGCGGGEVAALEKEVAALEKEVAALEKEVAALEK
chain 2: DIQLTQSPSFLSASVGDRVTITCSARSSISFMYWYQQKPGKAPKLLIYDTSNLASGVPSRFSGSGSGTEFTLTISSLEAEDAATYYCQQWSSYPLTFGQGTKLEIKGGGSGGGGEVQLVESGGGLVQPGGSLRLSCAASGFTFSTYAMNWVRQAPGKGLEWVGRIRSKYNNYATYYADSVKDRFTISRDDSKNSLYLQMNSLKTEDTAVYYCVRHGNFGNSYVSWFAYWGQGTLVTVSSGGCGGGKVAALKEKVAALKEKVAALKEKVAALKE
B2: gpA33 × CD3 bi-specific monovalent diabody having an Albumin-Binding Domain (DART-2 w/ABD) (bispecific antibody)
chain 1: QAVVTQEPSLTVSPGGTVTLTCRSSTGAVTTSNYANWVQQKPGQAPRGLIGGTNKRAPWTPARFSGSLLGGKAALTITGAQAEDEADYYCALWYSNLWVFGGGTKLTVLGGGGSGGGGQVQLVQSGAEVKKPGASVKVSCKASGYTFTGSWMNWVRQAPGQGLEWIGRIYPGDGETNYNGKFKDRVTITADKSTSTAYMELSSLRSEDTAVYYCARIYGNNVYFDVWGQGTTVTVSSGGCGGGEVAALEKEVAALEKEVAALEKEVAALEKGGGSLAQAKEAAIRELDKYGVSDYYKNLIDNAKSAEGVKALIDEILAALP
chain 2: B1 chain 2
B3: Humanized mAb 1 (antibody, V domains shown)
VH: QVQLVQSGAEVKKPGASVKVSCKASGYTFTGSWMNWVRQAPGQGLEWIGRIYPGDGETNYNGKFKDRVTITADKSTSTAYMELSSLRSEDTAVYYCARIYGNNVYFDVWGQGTTVTVSS
VL: DIQLTQSPSFLSASVGDRVTITCSARSSISFMYWYQQKPGKAPKLLIYDTSNLASGVPSRFSGSGSGTEFTLTISSLEAEDAATYYCQQWSSYPLTFGQGTKLEIK
notes: also called humanized anti-human gpA33 antibody
B4: Murine mAb 1 (antibody, V domains shown)
VH: QVQLQQSGPELVKPGASVKISCKASGYTFSGSWMNWVKQRPGQGLEWIGRIYPGDGETNYNGKFKDKATLTADKSSTTAYMELSSLTSVDSAVYFCARIYGNNVYFDVWGAGTTVTVSS
VL: QIVLTQSPAIMSASPGERVTMTCSARSSISFMYWYQQKPGSSPRLLIYDTSNLASGVPVRFSGSGSGTSYSLTISRMEAEDAATYYCQQWSSYPLTFGSGTKLELK
notes: also called original murine anti-human gpA33 monoclonal antibody
B5: Chimeric mAb 1 (antibody, V domains shown)
VH: B4 VH
VL: B4 VL
notes: also called chimericized anti-human gpA33 antibody

Legend:
[1] = target: T1, gpA33 on human cancer cells (human, UniProt Q99795 22-319); test: cell-based or functional assay
T1 sequence (looked up): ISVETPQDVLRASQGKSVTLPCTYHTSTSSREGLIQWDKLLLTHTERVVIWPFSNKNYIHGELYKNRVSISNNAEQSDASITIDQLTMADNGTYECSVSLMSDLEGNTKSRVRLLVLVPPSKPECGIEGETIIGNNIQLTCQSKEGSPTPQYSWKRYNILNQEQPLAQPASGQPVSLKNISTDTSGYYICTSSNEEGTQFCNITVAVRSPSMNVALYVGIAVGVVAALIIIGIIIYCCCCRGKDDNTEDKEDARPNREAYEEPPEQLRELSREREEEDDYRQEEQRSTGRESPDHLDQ

[2] = target: CD3 of cynomolgus monkey T cells (cynomolgus monkey, UniProt Q95LI5 22-198; Q95LI8 22-171); test: cell-based or functional assay
human gpA33 = target: T2, human gpA33 (human, UniProt Q99795 22-235, limits assumed); test: kinetics of binding to gpA33; method not stated
T2 construct: There it is printed only as gpA33; also called A33 antigen
T2 sequence (looked up): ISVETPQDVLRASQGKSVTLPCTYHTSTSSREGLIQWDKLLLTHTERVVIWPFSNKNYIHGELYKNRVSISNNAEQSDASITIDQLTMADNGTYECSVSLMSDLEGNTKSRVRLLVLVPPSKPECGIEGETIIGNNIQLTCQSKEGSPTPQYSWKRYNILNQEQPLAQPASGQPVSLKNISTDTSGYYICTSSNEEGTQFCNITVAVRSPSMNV

CD3 of cynomolgus monkey T cells, sequence (Q95LI5 22-198 limits assumed, chain 1 of 2): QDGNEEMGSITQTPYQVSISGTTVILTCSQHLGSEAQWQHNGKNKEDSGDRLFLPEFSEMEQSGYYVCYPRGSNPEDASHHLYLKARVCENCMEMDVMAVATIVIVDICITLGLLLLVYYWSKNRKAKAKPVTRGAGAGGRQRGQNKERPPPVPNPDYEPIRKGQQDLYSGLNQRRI
CD3 of cynomolgus monkey T cells, sequence (Q95LI8 22-171 limits assumed, chain 2 of 2): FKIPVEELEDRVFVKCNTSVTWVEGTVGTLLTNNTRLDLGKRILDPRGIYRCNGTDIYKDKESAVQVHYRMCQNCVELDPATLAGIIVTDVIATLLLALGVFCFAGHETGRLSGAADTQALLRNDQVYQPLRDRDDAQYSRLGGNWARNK

Binder | EC50 - CTL Activity, Colo205 Target Cells, LDH Assay, Human PBMC [1] [ng/mL] | EC50 - CTL Activity, Colo205 Target Cells, Luciferase Assay, Human PBMC [1] [ng/mL] | EC50 - CTL Activity, Colo205 Target Cells, LDH Assay, Cyno PBMC [2] [ng/mL] | EC50 - CTL Activity, Colo205 Target Cells, Luciferase Assay, Cyno PBMC [2] [ng/mL] | Kd (human gpA33) [nM]
B1 | 4.09 | 2.73 | 3.81 | 1.55 | –
B2 | 5.52 | 3.07 | 4.63 | 1.63 | –
B3 | – | – | – | – | 3.4
B4 | – | – | – | – | 2.3
B5 | – | – | – | – | 2.4
